The values that follow come from patent publication US20250084176A1.

This experiment addresses mouse CD137, full length, on cells (mouse) (UniProt P20334). The experiment in a line: cell-based or functional assay.

mouse CD137, full length, on cells (mouse), sequence (P20334 24-256): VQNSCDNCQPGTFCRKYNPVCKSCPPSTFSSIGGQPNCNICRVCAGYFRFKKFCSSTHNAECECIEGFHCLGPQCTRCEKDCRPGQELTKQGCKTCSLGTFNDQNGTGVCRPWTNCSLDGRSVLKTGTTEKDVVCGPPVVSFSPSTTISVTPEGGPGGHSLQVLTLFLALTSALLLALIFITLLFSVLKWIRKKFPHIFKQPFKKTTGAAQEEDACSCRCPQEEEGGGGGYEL

G1-AA/Lob12.3 (antibody) yielded an IL-2 release, mouse CD137 DO11.10 T cell activation assay, Protein L: +XL EC50 of 2.26 nM and an IL-2 release, mouse CD137 DO11.10 T cell activation assay, Protein L: +XL Emax of 21300 pg/mL.
